# Results: US20260242478A1 (published 2026)
# Where no end group is shown, it is not given here.
# What was measured:
# [1] = target: T1, PSMA Fab (biotinylated (site not stated)); test: phage ELISA; PSMA Fab-coated wells pre-incubated with PSMA antigen as competitor, anti-M13-HRP detection
# T1 construct: Biotinylated PSMA Fab captured on neutravidin plates in the phage ELISA; also called Anti-PSMA Fab; 006 PSMA Fab
# [2] = target: T1, PSMA Fab; test: phage ELISA; biotinylated PSMA Fab on neutravidin plate, clonal phage supernatant, anti-M13-HRP detection;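 note: wells were preincubated with blocking buffer containing PSMA antigen or with blocking buffer only, then phage supernatant was added without washing for a brief incubation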
# Procedure: (§1) Clonal phage were harvested as crude supernatants and screened via standard ELISAs. […] Prior to the addition of clonal phage. wells were incubated with blocking buffer and PSMA antigen or blocking buffer alone. Without washing or aspirating, clonal phage supernatants were then added to the wells and incubated for a short time. Wells were then washed followed by detection of bound phage using a horse radish conjugated anti-M13 antibody.
# [3] = target: T2, PSMA Fab (SEQ ID NOs: 19, 20); test: phage ELISA; biotinylated PSMA Fab on neutravidin plate, anti-M13 HRP; no PSMA antigen
# T2 construct: Biotinylated and captured on neutravidin coated plates in the phage ELISA; also called Anti-PSMA Fab; 006 PSMA Fab
# Procedure: as §1
# [4] = target: T2, PSMA Fab (SEQ ID NOs: 19, 20); test: phage ELISA; biotinylated PSMA Fab on neutravidin plate, anti-M13 HRP; competitor PSMA antigen pre-incubated
# Procedure: as §1
# [5] = target: T3, PSMA Fab (006 PSMA Fab); test: clonal phage ELISA; biotinylated PSMA Fab on neutravidin plate, blocking buffer alone; anti-M13 HRP detection;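 note: crude clonal phage supernatants added without washing to wells pretreated with blocking buffer with or without PSMA antigen, short incubation, then washed before detecting bound phage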
# T3 construct: also called Anti-PSMA Fab; anti-PSMA Fab
# Procedure: as §1
# [6] = target: T3, PSMA Fab (006 PSMA Fab); test: clonal phage ELISA; biotinylated PSMA Fab on neutravidin plate, wells pre-incubated with PSMA antigen as competitor; anti-M13 HRP detection;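 note: crude clonal phage supernatants added to antigen-treated wells without a wash, incubated briefly, then bound phage read out via horse radish–conjugated anti-M13 antibody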
# Procedure: as §1
binder,measurement,setting,value
VQKWCIPPWMCTHI [Phage-2549],"Phage binding ELISA signal, Anti-PSMA Fab with PSMA antigen",[1],0.0958
same,"Phage binding ELISA signal, Anti-PSMA Fab",[2],1.14
YAPWCIPLWMCLDR [Phage-2561],phage binding ELISA signal,[3],1.11
same,phage binding ELISA signal,[4],0.161
WDKWCTPPWMCQVH [Phage-2559],phage binding ELISA signal,[3],1.12
same,phage binding ELISA signal,[4],0.0758
VLKWCTPAWMCTGF [Phage-2557],"Phage binding ELISA signal, Anti-PSMA Fab with PSMA antigen",[1],0.0805
same,"Phage binding ELISA signal, Anti-PSMA Fab",[2],1.12
WENWCTPTWMCWPN [Phage-2558],phage binding ELISA signal,[3],1.12
same,phage binding ELISA signal,[4],0.0834
LYNWCTPAWMCYGY [Phage-2545],"Phage binding ELISA signal, Anti-PSMA Fab with PSMA antigen",[1],0.284
same,"Phage binding ELISA signal, Anti-PSMA Fab",[2],1.15
PLKWCIPQWMCTEA [Phage-2544],"Phage binding ELISA signal, Anti-PSMA Fab with PSMA antigen",[1],0.0825
same,"Phage binding ELISA signal, Anti-PSMA Fab",[2],1.15
EPKWCTPPWMCQSV [Phage-2551],"Phage binding ELISA signal, Anti-PSMA Fab with PSMA antigen",[1],0.0734
same,"Phage binding ELISA signal, Anti-PSMA Fab",[2],1.14
ESHWCIPAWMCEQF [Phage-2546],"Phage binding ELISA signal, Anti-PSMA Fab with PSMA antigen",[1],0.0589
same,"Phage binding ELISA signal, Anti-PSMA Fab",[2],1.14
EIKWCTPAWMCAIN (Row prints E I K W - T - A - - - - I N) [Phage-2514],"Phage binding ELISA signal, Anti-PSMA Fab",[5],1.18
same,"Phage binding ELISA signal, Anti-PSMA Fab in presence of PSMA antigen",[6],0.0972
FHEWCIPSWMCFKE [Phage-2550],"Phage binding ELISA signal, Anti-PSMA Fab with PSMA antigen",[1],0.0984
same,"Phage binding ELISA signal, Anti-PSMA Fab",[2],1.14
VDPWCKPAWMCLGM [Phage-2566],phage binding ELISA signal,[3],1.11
same,phage binding ELISA signal,[4],0.0597
IAKLCTPAWMCERH [Phage-2562],phage binding ELISA signal,[3],1.11
same,phage binding ELISA signal,[4],0.0803
TQKLCIPEWMCEAM [Phage-2555],"Phage binding ELISA signal, Anti-PSMA Fab with PSMA antigen",[1],0.0698
same,"Phage binding ELISA signal, Anti-PSMA Fab",[2],1.12
WEKWCTPSWMCSAG (Row prints W E K W - T - S - - - S A G) [Phage-2526],"Phage binding ELISA signal, Anti-PSMA Fab",[5],1.17
same,"Phage binding ELISA signal, Anti-PSMA Fab in presence of PSMA antigen",[6],0.0743
FENWCTPKWMCIGV [Phage-2548],"Phage binding ELISA signal, Anti-PSMA Fab with PSMA antigen",[1],0.102
same,"Phage binding ELISA signal, Anti-PSMA Fab",[2],1.14
VDNWCTPMWMCAWI (Row prints V D N W - T - M - - - - W I) [Phage-2517],"Phage binding ELISA signal, Anti-PSMA Fab",[5],1.18
same,"Phage binding ELISA signal, Anti-PSMA Fab in presence of PSMA antigen",[6],0.109
AEYWCIPRWMCSQH [Phage-2552],"Phage binding ELISA signal, Anti-PSMA Fab with PSMA antigen",[1],0.0882
same,"Phage binding ELISA signal, Anti-PSMA Fab",[2],1.14
"NWKWCIPEWMCAAE (cysteine pairing not given here; also: fused to phage pIII, linker and fusion site not given here) [Phage-2563]",phage binding ELISA signal,[3],1.11
same,phage binding ELISA signal,[4],0.0635
SEIWCIPAWMCQST [Phage-2564],phage binding ELISA signal,[3],1.11
same,phage binding ELISA signal,[4],0.0851
EPKWCTPPWMCENF [Phage-2567],phage binding ELISA signal,[3],1.11
same,phage binding ELISA signal,[4],0.0576
PIPLCIPLWMCEER (Row prints P I P - - I - L - - - E E R) [Phage-2520],"Phage binding ELISA signal, Anti-PSMA Fab",[5],1.18
same,"Phage binding ELISA signal, Anti-PSMA Fab in presence of PSMA antigen",[6],0.0838
IDPRCIPEWMCIGY (Row prints - D P R - I - E - - - I - Y) [Phage-2518],"Phage binding ELISA signal, Anti-PSMA Fab",[5],1.18
same,"Phage binding ELISA signal, Anti-PSMA Fab in presence of PSMA antigen",[6],0.0633
GVMWCIPQWMCVTA [Phage-2560],phage binding ELISA signal,[3],1.12
same,phage binding ELISA signal,[4],0.104
LQTWCIPPWMCEGG [Phage-2556],"Phage binding ELISA signal, Anti-PSMA Fab with PSMA antigen",[1],0.0675
same,"Phage binding ELISA signal, Anti-PSMA Fab",[2],1.12
IVRWCTPEWMCVGF (Row prints - V R W - T - E - - - V - -) [Phage-2523],"Phage binding ELISA signal, Anti-PSMA Fab",[5],1.18
same,"Phage binding ELISA signal, Anti-PSMA Fab in presence of PSMA antigen",[6],0.0674
DNKWCIPEWMCFAS (Row prints D N K W - I - E - - - F A S) [Phage-2521],"Phage binding ELISA signal, Anti-PSMA Fab",[5],1.18
same,"Phage binding ELISA signal, Anti-PSMA Fab in presence of PSMA antigen",[6],0.0796
"EGKWCIPDWMCAAH (cysteine pairing not given here; also: fused to phage pIII, linker and fusion site not given here) [Phage-2547]","Phage binding ELISA signal, Anti-PSMA Fab with PSMA antigen",[1],0.0598
same,"Phage binding ELISA signal, Anti-PSMA Fab",[2],1.14
"SEHWCIPQWMCQSV (cysteine pairing not given here; also: fused to phage pIII, linker and fusion site not given here) [Phage-2543]","Phage binding ELISA signal, Anti-PSMA Fab with PSMA antigen",[1],0.114
same,"Phage binding ELISA signal, Anti-PSMA Fab",[2],1.15
SLELCRPEWMCVGF (Row prints S L E - - R - E - - - V - -) [Phage-2513],"Phage binding ELISA signal, Anti-PSMA Fab",[5],1.19
same,"Phage binding ELISA signal, Anti-PSMA Fab in presence of PSMA antigen",[6],0.0955
VPKWCTPAWMCTGL (Row prints V P K W - T - A - - - T - L) [Phage-2516],"Phage binding ELISA signal, Anti-PSMA Fab",[5],1.18
same,"Phage binding ELISA signal, Anti-PSMA Fab in presence of PSMA antigen",[6],0.0721
AVKWCTPAWMCSGF (Row prints A V K W - T - A - - - S - -) [Phage-2524],"Phage binding ELISA signal, Anti-PSMA Fab",[5],1.18
same,"Phage binding ELISA signal, Anti-PSMA Fab in presence of PSMA antigen",[6],0.0682
LTQWCIPQWMCEGS (Row prints L T Q W - I - Q - - - E - S) [Phage-2515],"Phage binding ELISA signal, Anti-PSMA Fab",[5],1.18
same,"Phage binding ELISA signal, Anti-PSMA Fab in presence of PSMA antigen",[6],0.0537
GEKACIPAWMCSEN [Phage-2553],"Phage binding ELISA signal, Anti-PSMA Fab with PSMA antigen",[1],0.0736
same,"Phage binding ELISA signal, Anti-PSMA Fab",[2],1.13
VPIWCTPEWMCSGF (Row prints V P I W - T - E - - - S - -) [Phage-2519],"Phage binding ELISA signal, Anti-PSMA Fab",[5],1.18
same,"Phage binding ELISA signal, Anti-PSMA Fab in presence of PSMA antigen",[6],0.0879
LGKMCIPLWMCDGL (Row prints L G K M - I - L - - - D - L) [Phage-2512],"Phage binding ELISA signal, Anti-PSMA Fab",[5],1.19
same,"Phage binding ELISA signal, Anti-PSMA Fab in presence of PSMA antigen",[6],0.0573
MFKWCTPQWMCETM [Phage-2554],"Phage binding ELISA signal, Anti-PSMA Fab with PSMA antigen",[1],0.124
same,"Phage binding ELISA signal, Anti-PSMA Fab",[2],1.13
VITWCTPPWMCSGW (Row prints V I T W - T - P - - - S - W) [Phage-2525],"Phage binding ELISA signal, Anti-PSMA Fab",[5],1.17
same,"Phage binding ELISA signal, Anti-PSMA Fab in presence of PSMA antigen",[6],0.0911
VEKWCIPEWMCWTV [Phage-2565],phage binding ELISA signal,[3],1.11
same,phage binding ELISA signal,[4],0.0709
HERSCIPAWMCWRQ (Row prints H E R S - I - A - - - W R Q) [Phage-2522],"Phage binding ELISA signal, Anti-PSMA Fab",[5],1.18
same,"Phage binding ELISA signal, Anti-PSMA Fab in presence of PSMA antigen",[6],0.0706
